Reference: the DeepSol protein solubility set

Assay: soluble on expression in E. coli; label from the status in PepcDB or PDB records

Row | Sequence | soluble on expression in E. coli
1 | MGSDKIHHHHHHMARINLEQLSTFLAVVRLGGVRRAATSLNLTQPAVTARIKNLEDNLDCELFDRTQSGMKLTKRGELLLGHAEKYEHLTQLVERDLVDPAGVEGRLRLGASETIAQCWLPDLVTRLHQLFPKLEIELVVDISANLRAGLMDRELDLAILLGPLSEFSVNNVELPDFELAWYAAADTSSEAIAASYLSRPVLTYPRNTRPYRELKEKLFEQAGPNFSLFPSSSLSACFRLVEADLGVAVLPRALGREYVLAGRIREFDPGWVPAPLRFTICYMGEPKSQLIETAAHMAREVAVDYHGDKNNL | not soluble
2 | MAHHHHHHMAEEGSGLHQFWNTQPVPQSSIDAADTVGPLEAAGTVDDVPTDPVAIASTLEWWSPDMDNKDDVRAIYELLRDNYVEDVESMFRFNYSEDFLRWALTPPGYHSSWHVAVRRKRDQMLMGFVSGIPVTMRMGAPKKVLQKNKTTEEKEQGPEEKNNDHKSQAEELYLEPRKICEINFLCVHKLLRAKRLAPILIKEVTRRVHLMNIWQAVYTAGRLLPTPFATADYYHRSLNPEKLVAVGFSAIPQQYQKFQNPLSMIKRFYELPAKPKTRGLRPMEPKDAPQVANLLRKKLATCDVAPVFTDEEVAHYTLPREGVLMSYVVEREVSGGGGGGRVDSSRGKQNDAGTQKQITDFFSFFSLPSSIIGSSKHSVLNAAYVFYSANTTISLVHLMSDLLIVAHQQGFDVCNVVNIMDNGDYLSELKFGRGDGNLHYYFYNWSYPIVQPSDVGLFML | not soluble
3 | MDYEIENNHADSIRRGSIEVICGSMFSGKTEELLRRLRRAKIARQTVEIFKPTIDIRYDETDVVSHDKNAIASTPVDNSANILLLSSQVDVVGIDEAQFFDEGLVEVAQQLADQGVRVVIAGLDMDFRRQPFGPMPGLCAIADSVTKVHAVCVECGRLASYSFRRVQGDQQVMLGELNEYSPLCRTCYRKCSSPPQTEEIHSTILEHHHHHH | soluble
4 | MELQLAIDLLNKEEAAKLAQKVEEYVDIVEIGTPIVINEGLPAVQHLNENINNAKVLADLKIMDAADYEVSQAVKYGADIVTILGVAEDASIKAAVEEAHKHGKALLVDMIAVQNLEQRAKELDEMGADYIAVHTGYDLQAEGKSPLDSLRTVKSVIKNSKVAVAGGIKPDTIKDIVAEDPDLVIVGGGIANADDPVEAAKQCRVAIEG | not soluble
5 | MKILVTGTEGYLGSLLPSLLIAKGHEVSGLDTGFYKVGWLYNGTNITAKTLNKDIRNIIPEDLEGVDAIVHMAELSNDPAGQLAPHITYEINHLGSVHLANLAKRMGVRRFLYMSSCSVYGVASEGDVTEESPVNPQTAYAECKTLVERDIKPLADDDFSPTFMRNATAFGASPRMRFDIVLNNLSGLAWTTKEIKMTSDGTPWRPLVHALDICQAIICALEAPRDIVHNQVFNVGDTANNYRVKEIAEIIADTFPSCKLTFGNNGSDNRSYRVSFEKINTVLPGFKCEWNAQTGAKQLFDLFSQIDMTEDTFLFRGFTRLKQLEYLIRTQQIDQNFFWAKCDNVVV | not soluble
6 | PLGLAPTASTTATLAMGDALAVALLIERGFRPEDFALFHPGGSLGKKLLLTVGDLMHSGDAVPLVGSATPIRDALFVITAKGLGITGVCAEDGALVGVVTDGDLRRSLGKGVDILNQPAGEIMTRNPKRINRSELAAKALQVMESHSITSLFVFDDTADNRPVGVIHLHDLLRA | not soluble
7 | STVSEAYSPPLFSIAPMMGWTDNHYRTLARLITKHAWLYTEMLAAETIVYQEDNLDSFLAFSPDQHPIVLQIGGRNLENLAKATRLANAYAYDEINFNCGCPSPKVSGRGCFGALLMLDPKFVGEAMSVIAANTNAAVTVKCRIGVDDHDSYNELCDFIHIVSSLSPTKHFIIHSRKALLSGLSPSDNRRIPPLKCVQKVFLCPFA | soluble
8 | MTAESGGRDWTGADLAVVVGDYVAQLEKVLAGKPVDRAAHDRTVRFVTGKADGPISWKQGEISAVLSLIGVPILKDQPPRWAYDNALLDAVEEQLAAKPALLAAAVRPAALFTAPSAVPLIEAAPPKPMPMTQRLIQAIQRFDMGSREADDRFLKGLGIASIVAHEARRLSDRGRPDLAGAIRPARGGDPEGCDVISFGLDEIPRLIVVKTTLAGEVAPFGLSQAEYELSRAQPHAFRIRRVYDLLGEARFYRLKPPFGLEHHHHHH | not soluble
9 | MGSSHHHHHHSSGLVPRGSHMRLAGILLHVTSLPSPYGIGDLGKEAYRFLDFLKECGFSLWQVLPLNPTSLEAGNSPYSSNSLFAGNYVLIDPEELLEEDLIKERDLKRFPLGEALYEVVYEYKKELLEKAFKNFRRFELLEDFLKEHSYWLRDYALYMAIKEEEGKEWYEWDEELKRREKEALKRVLNKLKGRFYFHVFVQFVFFKQWEKLRRYARERGISIVGDLPMYPSYSSADVWTNPELFKLDGDLKPLFVAGVPPDFFSKTGQLWGNPVYNWEEHEKEGFRWWIRRVLHNLKLFDFLRLDHFRGFEAYWEVPYGEETAVNGRWVKAPGKTLFKKLLSYFPKNPFIAEDLGFITDEVRYLRETFKIPGSRVIEFAFYDKESEHLPHNVEENNVYYTSTHDLPPIRGWFENLGEESRKRLFEYLGREIKEEKVNEELIRLVLISRAKFAIIQMQDLLNLGNEARMNYPGRPFGNWRWRIKEDYTQKKEFIKKLLGIYGREV | soluble
10 | MAHHHHHHMVNEYHEAPRPAITLPRPGTKFRASAVEPILKKVCQTLVGDRAYAHEDVQPLIKEICSEIQQRVVRLGYERYKFVTHATVTEAVNQGIRIASRGLWDPVTDGYASYTFSTETMHVNVVLYALYWE | not soluble
11 | MAHHHHHHMNGRYVPQEVLGTGTYGRVLRCNDVLTGRQVAVKVSQRDAAYRRSAMNEIRVLQLLSHTDNALKMFDFFEDSGHLCIASELLCTDFYEVLRKNGFQPLSLDTVRIVGERVLRALAELHKAGYMHCDIKPANVMLRFNETDRSNLSDFTKTCLIDFGAARQFHENTYYDVQSLWYRAPEVMLGLPYTSHIDSWSVGCLLFELYTGKPLFAGENPREQMTSIMCTVGMPPMEAFSSGANVEKLQLPCLAMDVNAEANLRNLIASYRCNNTGFNHSYQLVGEESAFVNLLCALLQPDVRWRLSCTDALHHAFFTSRCLYHGNIVSANFSVFSPSSNGLQSSIDSNFGAVFSSTGNDARGFGGFEHLVPQQTQPHPNPHPQPRLKSESSPILPANSNSVPLVGLVGSPPGMVLPGTRPPASSQVNIPSSRVVLQNVMYPTPPMKIIQPVPFNTQQSQKALQQPQRVSANMLPVMVSAIGNPYSFPPCVRPECQVQNWEPVIFQPQQQIPPEVTPMFQCKILPGGCQYNYQGGADPSFYGASIKSGLHSAVYVPS | not soluble
12 | SNAMSKITFKDIYIDGNKITEDSRKAIYLLPPQPLKYASNTWIYKTMPTMNQWLKDIEVQKKMHLNQSSYHLSFSFPANEKIDEVLLEKIRELGFQIGVLELYVIEAKALKELSRKRDVDIQLVSSNNINDYLHVYDAFARPFGDSYANMVKQHIYSSYNLDDIERLVAYVNHQPVGIVDIIMTDKTIEIDGFGVLEEFQHQGIGSEIQAYVGRMANERPVILVADGKDTAKDMYLRQGYVYQGFKYHILKENI | soluble
13 | MSLTIKEIADKVNLSPTTVSNVIHGRKGKVSPDNYKKISRALEESKYVSNMGGRLLGRHGSKIIAVILNYERRSEMNVVSDPFYNQIVGFLEEEIRKKSYFMMLYTSGSVTESLRLATAWDIEGLIVLGSHPDDAKNFIKQQKRPVAFIDTYVDKESMTDDFINVGLQDFKGGYQITNYLIGLGHRRIGFFADGNQLLGVDQQRFAGFKKALSEADINLENPGFFGLDYRTNQRHIFLKKFSETKLKDYTALVFTSDFLAVDAINVFLDNGFKVPEDISITGFDHNIFSEQCRPKLTTIGQNVQKKAVLAVDFLTERIQSKQAIKKINLLLDAELIVQDSTAREGHHHHHH | soluble
14 | LQMTQSPSFLSASVGDRVSITCRASQDIQKFLAWYQLTPGDAPKLLMYSASTLQSGVPSRFSGSGSGTEFTLTISGLQPEDFATYYCQHLKRYPYTFGQGTKLEISRTVAAPSVFIFPPSDEQLKSGTASVVCLLNNFYPREAKVQWKVDNALQSGNSQESVTEQDNKDSTYSLSSTLTLSKADYEKHKVYACEVTHQGLSSPVTKSFNRGEC | soluble
15 | GSKQVITEQIANDLVKEVVNSSVISIVKREFSEANYRKDFIDTMTRELYDAFLHERLYLIYMDSRAELKRNSTLKKKFFEKWQAS | soluble
